Paper PMC10496648

Biological target: Kv4.2-YFP (mouse) (UniProt Q9Z0V2)
Assay: FRET or BRET

Sequence of UniProt Q9Z0V2 (Q9Z0V2 whole entry): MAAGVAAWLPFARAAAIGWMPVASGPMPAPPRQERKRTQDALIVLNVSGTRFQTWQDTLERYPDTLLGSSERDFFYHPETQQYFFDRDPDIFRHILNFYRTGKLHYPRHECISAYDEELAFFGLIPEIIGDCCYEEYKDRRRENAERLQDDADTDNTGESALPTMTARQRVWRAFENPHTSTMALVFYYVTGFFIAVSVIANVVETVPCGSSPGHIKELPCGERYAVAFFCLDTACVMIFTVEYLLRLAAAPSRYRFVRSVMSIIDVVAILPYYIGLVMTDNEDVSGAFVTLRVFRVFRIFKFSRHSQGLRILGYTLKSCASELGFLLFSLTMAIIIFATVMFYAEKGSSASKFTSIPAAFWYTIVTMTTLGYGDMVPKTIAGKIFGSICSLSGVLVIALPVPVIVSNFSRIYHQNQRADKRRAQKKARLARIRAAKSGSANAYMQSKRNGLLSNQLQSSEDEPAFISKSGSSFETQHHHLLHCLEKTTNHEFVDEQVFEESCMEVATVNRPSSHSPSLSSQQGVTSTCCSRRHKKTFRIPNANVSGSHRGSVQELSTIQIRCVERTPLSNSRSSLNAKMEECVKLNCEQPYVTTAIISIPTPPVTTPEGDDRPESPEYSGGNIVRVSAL

KChIP3a-CFP (text) / KChIP2c-CFP (legend, methods) (from UniProt Q9JM59-3 1-220) (natural protein)
FRET efficiency: 11.2% | stoichiometry N: 1
